Reference: patent publication US20210085756A1, “SUPERACTIVE MUTANT THYMIDINE KINASE FOR USE IN CANCER THERAPY” (MEDIZINISCHE UNIVERSITÄT WIEN, priority 2017, published 2021)
Read-outs that look alike come from different tables or passages of the source.

How the values were obtained:
PC-3 cells = assay: MTT cell viability - cytotoxicity assay of stable pUHDsuperTK1 transfectants of PC-3; type: cell-based, Human (homo sapiens)
From the text: The MTT assay is a colorimetric assay for assessing cell metabolic activity; see J Immunol Methods. […] 16; 65(1-2):55-63; Sigma Aldrich. […] MTT Cell Viability Applications. […] Its value was set at 100%.

[1] = dTh dose to mean plasma or serum level correlation; type: in vivo, human
From the text: It can be expected that a therapy regimen employing these reduced concentration levels will be well tolerated by all patients, but still functioning.
Thus, there is normally a linear correlation between the dose/amount of dTh administered and the mean plasma level or mean serum level.

[2] = test system: normal and neoplastic cells; assay: cytotoxic impact of prolonged dTh in cell culture; type: cell-based; settings: administered for prolonged times
[3] = test system: patients with relapsed leukemia or lymphoma; settings: cited from earlier work
[4] = 400 mg/m2/day; cited from earlier work
[5] = test system: HeLa cervix carcinoma cells; assay: growth curves of superTk1 stable transfectant HeLa clone 117 with dTh, 5-FU or AraC +/- doxycyclin; settings: for inhibitory effect at concentrations lower than 5 μM: 2.5 and 1 μM, with dTh; for lowest concentration still able to cause cell growth arrest when combined with dTh: HeLa clone 117 superTk1, 0.1 mM dTh; for relative cell proliferation on day 4 compared to day 1: control groups without doxycycline; for relative cell proliferation on day 4 compared to day 1 / cell number of doxycyclin induced cells versus control without doxycyclin: 5 μM + 0.1 mM dTh; for cell number of doxycyclin induced cells versus control without doxycyclin: day 4
Experimental: Each sample was measured twice and setup as triplicates.
Each sample was set up as triplets and measured twice.
For this task this gene was integrated in pUHDhygr and stable transfected into HeLa cervix carcinoma cells. […] These transfected HeLa cells were grown under permanent hygromycin and puromycin selection pressure for 4 to 7 days, starting with 50.000 cells/well (12.500 cells/ml). In order to establish a perfect growth curve cell counts on a daily basis with a Casy cell counting system were mandatory.

rat hepatoma cells = settings: concomitant 1 mM dTh; cited from earlier work
L1210 leukemia cells = settings: after 0.1 mM dTh; cited from earlier work
human cytosolic Tk1 [6] = biological target: T1, human cytosolic Tk1 (Homo sapiens, UniProt P04183, G90A/K211R); assay: thymidine kinase specific enzyme activity assay (3H-dTh, DE81 filters); type: biochemical
T1 construct: made in house
T1 sequence (P04183 with tags, fused parts or gaps G90A/K211R): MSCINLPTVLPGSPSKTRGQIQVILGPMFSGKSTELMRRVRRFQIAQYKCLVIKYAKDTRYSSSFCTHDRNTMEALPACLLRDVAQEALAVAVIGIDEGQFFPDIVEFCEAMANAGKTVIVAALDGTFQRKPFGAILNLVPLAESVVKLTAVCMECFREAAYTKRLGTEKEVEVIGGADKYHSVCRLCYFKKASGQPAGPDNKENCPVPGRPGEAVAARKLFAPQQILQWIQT
Experimental: (§1) For the determination of a specific activity a quantification of the protein solution was done first, according the method of Bradford. The dye stock solution (Biorad) containing methanol and acetic acid was diluted 1:4 with ddH2O. An aliquot of the protein solution was then filled up to 1 ml with the diluted Bradford solution. (Usually 5l of protein solution are diluted in […] Bradford solution. The protein concentration is calculated by multiplying the absorbance at =595 nm with 17 and dividing this by 5, resulting in the concentration in μg/μl.) Depending on the concentration of the kinases 5-20 μl of the sample solution were used.
(§2) The following components were mixed for the enzyme assay:
(§3) 10 fold mix: • 0.5 M Tris-HCl, pH 7.5 • 0.1 M DTT • 25 mM ATP • 25 mM MgCl2
(§4) Set up for the activity test: 5.0 μl 10-fold mix • 2.5 μl BSA (60 mg/ml) • 1.0 μl Chaps (25 mM) • 1.0 μl NaF (0.15 M) • 1.0 μl ^3H-dTh or 3H-dCyd (500 μM, 2 Ci/mmol) • 5.0-20 μl of the protein solution • Filled up with ddH2O to 50 μl
(§5) The set-up was incubated at 37° C. At distinct times 10 μl aliquots were removed from the reaction mix and pipetted onto small pieces of DE81-filters. After removal of every aliquot, the filter papers were washed in a big volume of ammonium formiat (5 mM for TK assay), transferred to water and rinsed, and finally dried after shortly immersing them in ethanol. Then, after the dried filters were transferred into the scintillation tubes, the bound radioactive nucleotides were eluted by addition of 500 μl elution buffer (0.1 M HCl, 0.2 M KCl). 2.5 ml of scintillation solution were added before measuring the radioactivity. A standard was created in order to convert the cpm-values into pmol: 5 μl from some of the reactions were removed and pipetted on DE81-filters, which were not washed, but directly transferred to the scintillation tubes, treated like described above, and measured. 5 μl of the standard contained 50 pMol of the substrate or the product. From the cpm-values of these samples one got the converting factor UF (is equal to the specific activity of the used substrate): UF=cpm standard/50 pMol
(§6) For the calculation of the whole enzymatic activity of one fraction (U) the following formula was used:
(§7) 10 μl were pipetted at each time point onto the filter, and 20 μl of the protein solution was initially used. cpm=(cpmt2−cpm t1)/t2−t1 (cpm/min); t1=start of the reaction; t2=end of the reaction, e.g. 5 min; Vol=total volume of the fraction (μl); UF is the specific activity (see above) (cpm/pMol); U is the whole activity of the enzyme per fraction (pMol/min×μl=Mol/min×ml).

human cytosolic Tk1 [7] = assay: as above; type: biochemical
Experimental: as §1, §2, §3, §4, §5, §6, §7

[8] = test system: PC-3 prostate carcinoma cells; assay: growth experiment, stable pUHDsuperTk1/wtTk1 transfectants of PC-3 treated with dTh +/- doxycyclin; type: cell-based, Human (homo sapiens)
Experimental: (§8) Cell batches that expressed superTk1 received 5 μg/ml doxycyclin replenished on a daily basis. The control samples received all other constituents (dTh, antibiotics) but no doxycyclin. In addition, the cell culture medium was renewed completely every 72 hrs in all wells in order to avoid unwanted starvation or deprivation effects.
as §8, with “wtTk1” for “superTk1”, “after” for “every”

[9] = test system: PC-3 prostate cancer cells; assay: FACS DNA profile (propidium iodide) cell cycle distribution of PC-3 superTK1 clone 2; type: cell-based, Human (homo sapiens); settings: 0.5 mM dTh + 5 μg/ml doxycycline for 3 days
[10] = infusion, up to 240 g/sq m/day for 14 to 29 days
[11] = doxycycline (superTK1 induced), no dTh added
[12] = 0.5 mM dTh daily + 5 μg/ml doxycyclin, superTk1 clone 2 (7 days) or wtTk1 clone 7 (5 days)

Cc1cn([C@H]2C[C@H](O)[C@@H](CO)O2)c(=O)[nH]c1=O [dTh, deoxythymidine]
ability to convert the MTT dye, percentage of control absorbance (PC-3 cells; 0.5 mM dTh daily for 3 days, no doxycycline): 55%
mean plasma level or mean serum level ([1]; 5 g dTh/sqm/day): about 0.1 mM
mean plasma level or mean serum level ([1]; 25 g dTh/sqm/day): about 0.5 mM
dTh levels exerting cytotoxic impacts [2]: exceeding 4 mM
therapy outcome ([3]; acute leukemia previously refractory to treatment): complete remission in some patients
mean plasma dTh levels [3, 10]: 5.5 mM
side effects [3, 10]: nausea, vomiting, hepatotoxicity, electrolyte imbalances, mild central nervous system toxicity and bone marrow aplasia

O=c1[nH]cc(F)c(=O)[nH]1 [5-FU, 5-fluorouracil]
cmax in the serum [4]: 55.44 µg/mL
inhibitory effect at concentrations lower than 5 μM [5]: too low to exert any inhibitory effects
lowest concentration still able to cause cell growth arrest when combined with dTh [5]: 5 µM
relative cell proliferation on day 4 compared to day 1 [5]: 3.3 fold
cell number of doxycyclin induced cells versus control without doxycyclin [5]: reduced almost to half

Nc1ccn([C@@H]2O[C@H](CO)[C@@H](O)[C@@H]2O)c(=O)n1 [AraC, cytosine arabinoside]
increase of incorporation into the DNA (rat hepatoma cells): over 2 fold
increase of incorporation into DNA (L1210 leukemia cells): 5 fold
inhibitory effect at concentrations lower than 5 μM [5]: too low to exert any inhibitory effects
lowest concentration still able to cause cell growth arrest when combined with dTh [5]: 5 µM
relative cell proliferation on day 4 compared to day 1 [5]: 2.4 fold
cell number of doxycyclin induced cells versus control without doxycyclin [5]: reduced almost to half

C[C@H]1c2cccc(O)c2C(=O)C2=C(O)[C@]3(O)C(=O)C(C(N)=O)=C(O)[C@@H](N(C)C)[C@@H]3[C@@H](O)[C@@H]21 [doxycycline, reference compound]
cell viability (MTT) compared to control (PC-3 cells; [11]): 30%

B1: human TK1 mut G90A: mutant human thymidine kinase 1 with G90A, aa sequence SEQ ID No. 12, here called superTk1 (protein)
chain: MSCINLPTVLPGSPSKTRGQIQVILGPMFSGKSTELMRRVRRFQIAQYKCLVIKYAKDTRYSSSFCTHDRNTMEALPACLLRDVAQEALAVAVIGIDEGQFFPDIVEFCEAMANAGKTVIVAALDGTFQRKPFGAILNLVPLAESVVKLTAVCMECFREAAYTKRLGTEKEVEVIGGADKYHSVCRLCYFKKASGQPAGPDNKENCPVPGRPGEAVAARKLFAPQQILQWIQT
modifications: Human TK1 mutG90A
activity compared to the wt Tk1 (human cytosolic Tk1 [6]; after 5 min incubation time): 9 fold
activity compared to the wt Tk1 (human cytosolic Tk1 [6]; after 10 min incubation time): 18.2 fold
measured specific Tk1 enzyme activity (human cytosolic Tk1 [6]; data retrieved from a different experiment): 375 pmol/mg/min
specific activity compared to the wild type enzyme (human cytosolic Tk1 [7]; listed as A90G): more than 9 fold
specific activity compared to the wild type enzyme (human cytosolic Tk1 [7]; listed as G90A): about 9 fold
specific activity compared to the wild type enzyme (human cytosolic Tk1 [7]; listed as superTk1): more than 9 fold
relative cell proliferation (in words) [8, 12]: do not proliferate and even decrease in cell number from day 4
relative cell proliferation (in words) ([8]; clone 13, 0.1 mM dTh daily + doxycyclin, four days): did not allow the cells to proliferate at all
cells in G2/M phase [9]: No cells were detectable
cells in S phase [9]: Over 75%
portion of cells in G1 phase [9]: approx. one fourth
cell viability (MTT) compared to control (PC-3 cells; 0.5 mM dTh + doxycycline (superTK1 induced)): approx. 20%
cell viability (MTT) compared to control (PC-3 cells; [11]): approx. 30%
growth of tumor cell cultures (in words) ([5]; 0.1 mM dTh and doxycyclin induction): clear growth repression

B2: human TK1 mut L8081F: double mutant named "feeble" Tk1 with decreased specific activity, aa sequence SEQ ID No. 26 (protein)
chain: MSCINLPTVLPGSPSKTRGQIQVILGPMFSGKSTELMRRVRRFQIAQYKCLVIKYAKDTRYSSSFCTHDRNTMEALPACFFRDVAQEALGVAVIGIDEGQFFPDIVEFCEAMANAGKTVIVAALDGTFQRKPFGAILNLVPLAESVVKLTAVCMECFREAAYTKRLGTEKEVEVIGGADKYHSVCRLCYFKKASGQPAGPDNKENCPVPGRPGEAVAARKLFAPQQILQWIQT
modifications: Human TK1 mutL8081F
measured specific Tk1 enzyme activity (human cytosolic Tk1 [7]): 1.4 pmol/mg/min
change of specific activity (in words) (human cytosolic Tk1 [7]; compared to wild type): strong decrease of specific activity

B3: wt: wild-type human cytosolic thymidine kinase 1, aa sequence SEQ ID NO. 28 (protein, listed as Homo sapiens)
chain: MSCINLPTVLPGSPSKTRGQIQVILGPMFSGKSTELMRRVRRFQIAQYKCLVIKYAKDTRYSSSFCTHDRNTMEALPACLLRDVAQEALGVAVIGIDEGQFFPDIVEFCEAMANAGKTVIVAALDGTFQRKPFGAILNLVPLAESVVKLTAVCMECFREAAYTKRLGTEKEVEVIGGADKYHSVCRLCYFKKASGQPAGPDNKENCPVPGKPGEAVAARKLFAPQQILQCSPAN
modifications: Human TK1 wt NM_003258
measured specific Tk1 enzyme activity (human cytosolic Tk1 [7]): 37 pmol/mg/min
relative cell proliferation (in words) [8, 12]: proliferate nicely, almost as well as the control cells

B4: human TK1 mut V84DG90A: double mutant human thymidine kinase 1, aa sequence SEQ ID No. 16; domain aa 71-95 NTMEALPACLLRDDAQEALAVAVIG (protein)
chain: MSCINLPTVLPGSPSKTRGQIQVILGPMFSGKSTELMRRVRRFQIAQYKCLVIKYAKDTRYSSSFCTHDRNTMEALPACLLRDDAQEALAVAVIGIDEGQFFPDIVEFCEAMANAGKTVIVAALDGTFQRKPFGAILNLVPLAESVVKLTAVCMECFREAAYTKRLGTEKEVEVIGGADKYHSVCRLCYFKKASGQPAGPDNKENCPVPGRPGEAVAARKLFAPQQILQWIQT
modifications: Human TK1 mutV84DG90A
measured specific Tk1 enzyme activity (human cytosolic Tk1 [7]): 393 pmol/mg/min
specific activity compared to the wild type enzyme (human cytosolic Tk1 [7]): at least 9 fold
